Source: patent publication US7632507B2, “Synovial cell protein” (St. Marianna University School of Medicine, priority 2000, dated 2009)

Columns and labels:
[35S]HA-Synoviolin-HAHA = molecular target: T1, [35S]HA-Synoviolin-HAHA (Homo sapiens, UniProt Q86TM6); experiment: Binding of Synoviolin to SL on nylon membrane with [35S]-labeled probe; conditions: protein transferred to nylon membrane, 2 hours at room temperature
T1 construct: Expression of Full-Length Synoviolin Recombinant Protein in E. coli; made in house; host or cells: cell-free in vitro translation (TNT-coupled Translation System, Promega) from pcDNA3-HA-synoviolin-HAHA
T1 sequence (Q86TM6 whole entry E545G): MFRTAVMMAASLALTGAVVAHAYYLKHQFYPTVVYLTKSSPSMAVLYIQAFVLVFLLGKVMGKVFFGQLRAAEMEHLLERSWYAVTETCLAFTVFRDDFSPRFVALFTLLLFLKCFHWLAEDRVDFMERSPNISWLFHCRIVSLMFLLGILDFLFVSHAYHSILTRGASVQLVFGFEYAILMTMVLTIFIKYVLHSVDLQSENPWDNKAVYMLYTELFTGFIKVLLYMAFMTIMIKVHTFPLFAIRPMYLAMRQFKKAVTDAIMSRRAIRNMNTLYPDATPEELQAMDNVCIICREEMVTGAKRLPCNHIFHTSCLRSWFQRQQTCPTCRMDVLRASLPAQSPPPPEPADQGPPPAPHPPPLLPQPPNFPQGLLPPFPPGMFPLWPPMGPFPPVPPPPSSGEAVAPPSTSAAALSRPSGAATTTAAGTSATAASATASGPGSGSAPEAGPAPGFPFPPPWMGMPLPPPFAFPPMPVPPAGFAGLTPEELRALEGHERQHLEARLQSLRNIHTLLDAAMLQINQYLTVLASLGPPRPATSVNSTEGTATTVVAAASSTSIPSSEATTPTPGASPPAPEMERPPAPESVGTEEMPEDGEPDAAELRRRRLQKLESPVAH
Procedure: The SL cDNA was inserted into a pGEX vector in the same manner as in Example 3 to prepare GST-SL fusion protein, and the GST-SL (500 ng) was applied to 10% SDS-PAGE along with GST (1 μg) as a control. After SDS-PAGE, it was transferred to a nylon membrane by electroblotting. This nylon membrane was denatured for 1 hour at room temperature with 50 mM Tris-HCl (pH 8.0) containing 6M guanidine hydrochloride and 5 mM 2-mercaptoethanol, and regenerated overnight at 4° C. in 50 mM Tris-HCl (pH 8.0) containing 5 mM 2-mercaptoethanol and 0.05% Tween 20. The regenerated nylon membrane was treated with blocking buffer [10 mM Tris-HCl (pH 8.0), 5% skim milk, 0.1% Triton X-100, 150 mM NaCl, 1 mM EDTA, 5 mM MgCl2, 1 mM DTT, 5% glycerol, protease inhibitor (complete, Boehringer Mannheim)] and washed in blocking buffer (same as above, except for 0.5% skim milk). […] This nylon membrane was washed in 10 mM Tris-HCl (pH 8.0), 0.5% skim milk, 0.1% Triton X-100, 150 mM NaCl, 1 mM EDTA, 5 mM MgCl2, 1 mM DTT, and protease inhibitor (complete, Boehringer Mannheim), and its radioactivity was detected with an image analyzer (BAS2000, Fujix). […]

[1] = tested on: anti-synovial cell anti-serum; experiment: Antibody absorption in fluorescent immunostaining of synovial cells; assay type: binding, rabbit
Procedure: Immunostaining was performed by fixing synovial cells upon glass slides by the ordinary method, and immunostaining was performed using the anti-synovial cell anti-serum of Example 1. A sample subjected to 30-minute blocking with 1% bovine serum albumin (BSA) was allowed to undergo immune reaction for 60 minutes at room temperature with anti-synovial cell anti-serum diluted 100 times with 1% BSA. In addition, along with observation with anti-serum, experiments were also performed using anti-synovial cell antibodies purified from this anti-serum. Purified anti-synovial cell antibodies were prepared by immunoaffinity purification using GST-partial Synoviolin fusion protein as a ligand. The ligand used was a fusion protein expressed after the GST-fusion protein expression vector pGEX-5X-3 containing the 1799 bp synoviolin gene up to No. 1233-3031 of SEQ ID NO: 1 was transformed into BL21. A Glutathione Sepharose column was produced by the method of the Pharmacia Corp, to prepare a GST-partial syno-GS column. As a control for the case where purified anti-synovial cell antibodies were used, an anti-GST antibody obtained by the immunoaffinity purification of anti-serum in the same manner where GST was used as the ligand was used. […]

[2] = tested on: anti-synovial cell anti-serum; experiment: Antibody absorption experiment in Western blotting of cell lysates; assay type: binding, rabbit; conditions: RA patient-derived synovial cells, 2.0 mg/mL
Procedure: First, the various cells used as specimens were solubilized in 1% NP-40 to prepare cell lysates. Each of the cell lysates was treated with 25 mM Tris-HCl (pH 6.8), 0.25% sodium dodecyl sulfate (SDS), 0.05% mercaptoethanol and 0.1% glycerol, and then separated with 8% SDS polyacrylamide electrophoresis (SDS-PAGE). After SDS-PAGE, protein derived from the various cells was transferred to a nitrocellulose (NC) membrane by electroblotting. On this NC membrane, anti-synovial cell anti-serum was diluted 1000 times with Tris buffered saline (TBS) containing 2.0 mg/mL GST-partial Synoviolin fusion protein and 5% skim milk, and subjected to immune reaction for 60 minutes at room temperature. In addition, as negative controls, an experiment wherein the same antibody solution is reacted with the NC membrane, and an experiment wherein the GST-partial Synoviolin fusion protein in the antibody solution is replaced with GST alone were performed at the same time. After the reaction, the NC membrane was washed with 0.1% Tween 20/TBS, subjected to an immune reaction for 60 minutes at room temperature with horseradish peroxidase (HRP) labeled anti-rabbit IgG antibodies as the secondary antibodies, and washed with 0.1% Tween 20/TBS, and the target antigen was detected by detecting HRP activity. […]

[3] = tested on: anti-synovial cell anti-serum; experiment: Antibody absorption test in synovial tissue staining; assay type: binding, rabbit; conditions: 2.0 mg/mL added to anti-serum
Procedure: The staining of RA patient-derived synovial tissue was performed by fixing synovial tissue upon glass slides by the ordinary method. A sample subjected to 30-minute blocking with 1% BSA was allowed to undergo immune reaction for 60 minutes at room temperature with anti-synovial cell anti-serum diluted 100 times with 1% BSA. After reaction, the sample was washed with PBS and then allowed to undergo immune reaction using HRP-labeled anti-rabbit IgG antibodies as the secondary antibody. Confirmation of the antigen in the immune reaction with anti-synovial cell anti-serum was performed by the coloring of 3,3′-diaminobenzidine tetrahydrochloride based on HRP activity. In the same manner as in the aforementioned Western blotting, GST-partial Synoviolin fusion protein was used to perform an anti-synovial cell anti-serum absorption test with respect to synovial tissue staining. Tissue staining was performed by adding 2.0 mg/mL of GST-partial Synoviolin fusion protein or GST (2.0 mg/mL) to anti-synovial cell anti-serum.

[4] = tested on: RA patient-derived synovial cells; experiment: MTT assay of synovial cell hyperplasia; assay type: cell-based, human; conditions: 1 μM, three days of culture, 10%-FCS/DMEM, 37° C., 5% CO2
Procedure: The RA patient-derived synovial cells prepared in Example 1 were used to prepare 96 well plates so that there were 5×10^3 cells/well, and GST or GST-partial Synoviolin was added to the cell supernatant so that the final concentration became 0.01 to 1 μM. After three days of culture, 3-(4,5-dimethyl-2-thiazolyl)-2,5-diphenyl-2H-tetrazolium bromide (MTT)/PBS was added to the cell supernatant, and it was cultured for 3 hours under conditions of 37° C. and 5% CO2. After culturing, the cell supernatant was removed, crystals of MTT formazan were dissolved with dimethyl sulfoxide, and absorbance measurement was performed (Journal of Immunological Methods, 65, 55, 1983).

Molecule	binding to [35S]HA-Synoviolin-HAHA ([35S]HA-Synoviolin-HAHA)	immune reaction of anti-synovial cell anti-serum with RA patient-derived synovial cells [1]	immune reaction of anti-synovial cell anti-serum to the 220 kDa protein [2]	immune reaction of anti-synovial cell anti-serum to the approximately 140 kDa and approximately 185 kDa proteins [2]	staining of synovial tissue with anti-synovial cell anti-serum [3]	RA patient-derived synovial cell hyperplasia [4]
glutathione S-transferase [GST, reference compound]	not observed					
GST-SL: GST fusion protein of Synoviolin ligand (SL), thought to be the same protein as S1-5 (protein, left off: a dimerising Fc or GST) QDTEETITYTQCTDGYEWDPVRQQCKDIDECDIVPDACKGGMKCVNHYGGYLCLPKTAQIIVNNEQPQQETQPAEGTSGATTGVVAASSMATSGVLPGGGFVASAAAVAGPEMQTGRNNFVIRRNPADPQRIPSNPSHRIQCAAGYEQSEHNVCQDIDECTAGTHNCRADQVCINLRGSFACQCPPGYQKRGEQCVDIDECTIPPYCHQRCVNTPGSFYCQCSPGFQLAANNYTCVDINECDASNQCAQQCYNILGSFICQCNQGYELSSDRLNCEDIDECRTSSYLCQYQCVNEPGKFSCMCPQGYQVVRSRTCQDINECETTNECREDEMCWNYHGGFRCYPRNPCQDPYILTPENRCVCPVSNAMCRELPQSIVYKYMSIRSDRSVPSDIFQIQATTIYANTINTFRIKSGNENGEFYLRQTSPVSAMLVLVKSLSGPREHIVDLEMLTVSSIGTFRTSSVLRLTIIVGPFSF	observed					
GST-partial Synoviolin: GST fusion protein of a portion of Synoviolin (cDNA 1799 bp; SEQ ID NO: 1, No. 1233-3031) expressed in E. coli (protein, left off: a dimerising Fc or GST) PPVPPPPSSGEAVAPPSTSAAALSRPSGAATTTAAGTSATAASATASGPGSGSAPEAGPAPGFPFPPPWMGMPLPPPFAFPPMPVPPAGFAGLTPEELRALEGHERQHLEARLQSLRNIHTLLDAAMLQINQYLTVLASLGPPRPATSVNSTEGTATTVVAAASSTSIPSSEATTPTPGASPPAPEMERPPAPESVGTEEMPEDGEPDAAELRRRRLQKLESPVAH		blocked	blocked	partially blocked	weakened	significantly suppressed
